Residue numbers refer to the chain shown, from its start.
T1: BCMA protein on MM1R cells (UniProt Q02223 1-184, limits assumed)
T1 construct: whole, on cells; also called BCMA proteins on MM1R cell membrane surfaces
T1 sequence (looked up): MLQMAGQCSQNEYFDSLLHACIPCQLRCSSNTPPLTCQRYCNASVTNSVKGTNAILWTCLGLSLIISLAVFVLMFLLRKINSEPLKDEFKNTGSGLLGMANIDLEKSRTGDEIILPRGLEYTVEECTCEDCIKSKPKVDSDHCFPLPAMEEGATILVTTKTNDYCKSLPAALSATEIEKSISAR

T2: Human BCMA-Avi-His (human, UniProt Q02223 2-54)
T2 construct: SPR analyte; also called human BCMA Avi-His protein
T2 sequence (looked up): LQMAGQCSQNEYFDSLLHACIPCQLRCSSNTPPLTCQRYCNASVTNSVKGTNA

B1: CA10_parental (antibody, V domains shown)
VH: QVQLVESGGGVVQPGRSLRLSCAASGFTFSNFGMHWVRQAPGRGLEWVAVIWSDETNRYYADSVKGRFTVSRDNVKSTVYLQMNSLISEDTAVYYCARDQQYCSSDSCFTWFDPWGQGTLVTVSS
VL: QVVVTQESALTTSPGETVTLTCRSSTGTVTPSNYANWVQEKPDHFFTGLIGDNNSRPPGVPARFSASLIGDKAALTITGAQTEDEAMYFCALWFGNQWVFGGGTKVTVL
notes: tested as a mAb purified on mAbSelect SuRe; also called CA10_V2_parental; CA10 WT
B2: CA10 Variant 5 (CA10_PE_V5) (antibody, V domains shown)
VH: B1 VH
VL: QTVVTQEPSLTVSPGGTVTLTCASSTGAVTSGYYANWVQQKPGQAPRALIGDNNIKPSWTPARFSGSLLGGKAALTLSGVQPEDEAEYYCALYYGGQWVFGGGTKLTVL
B3: CA10 Variant 2 (antibody, V domains shown)
VH: B1 VH
VL: QTVVTQEPSLTVSPGGTVTLTCASSTGTVTPSNYANWVQQKPGQAPRGLIGDNNSRPPGTPARFSASLLGGKAALTLSGVQPEDEAEYYCALWFGNQWVFGGGTKLTVL
B4: CA10 Variant 1 (antibody, V domains shown)
VH: B1 VH
VL: B3 VL with A23R, G43D, Q44H, A45F, P46F, R47T, T60V, L69I, G71D
B5: CA10 Variant 6 (antibody, V domains shown)
VH: B1 VH
VL: B3 VL with A45F
B6: CA10 Variant 3 (antibody, V domains shown)
VH: B1 VH
VL: B2 VL with S31P, G32S, Y33N, A48G, S58P, Y93W
B7: CA10 Variant 4 (antibody, V domains shown)
VH: B1 VH
VL: B2 VL with S31P, A48G, I55N, S58P

Key:
[1] = target: T1, BCMA protein on MM1R cells; assay: flow cytometry on MM1R cells
Protocol: HEK 293 cells or MM1R cells (0.5×10⁶) were aliquoted into separate FACS tubes and were labelled as unstained, test sample or positive control. Hybridoma sup (20 μL) or purified CA10 or positive control (1 μg/mL, 5 μL) were added to the cells and incubated on ice for 30 minutes. […] The supernatant was poured off and the cells were gently vortexed to mix. 50 μL of 1:500 dilution of FITC conjugated goat anti-human (or mouse) H+L specific secondary antibody was added to the cells, and the cells were incubated on ice or at 4° C. for 30 minutes in the dark. […] The supernatant was discarded, and the cells were resuspended in 150-200 μL of FACS buffer. The cells were acquired on a BD FACS Canto and data analyzed using Flojo V10. Software.

[2] = target: T3, Cyno BCMA-Avi-His (cynomolgus, UniProt A0A2K5UD97 2-53); assay: SPR (Biacore T100), antibody captured on Protein A chip, antigen as analyte
T3 construct: SPR analyte; also called cynomolgus BCMA Avi-His protein
Protocol: (§1) 1×HBS-EP+ was prepared in MilliQ water, filtered, and degassed. A BIACORE™ T100 was primed with 1×HBS-EP+. The immobilized chip […] BIACORE™ control software was used.
(§2) The antibodies were diluted to 20 μg/mL in HBS-EP+. Seven 1:1 serial dilutions of the antigens were prepared (80 nM final concentration), and 1×HBS-EP+ was used as a 0 nm control. 1×HBS-EP+ was used for start-up injections and HCl (12 mM) was used for regeneration. The samples were run, and the data were analyzed using the BIACORE™ T100 software.

[3] = target: T2, Human BCMA-Avi-His; assay: as above
Protocol: as §1, §2

[4] = target: T4, cynomolgus BCMA protein (ELISA antigen) (cynomolgus, UniProt A0A2K5UD97 1-53); assay: ELISA on coated BCMA antigen
T4 construct: also called Cyno BCMA; BCMA antigen
Protocol: A solution of BCMA antigen (2 μg/mL or 1 mg/mL biotinylated BCMA antigen when Streptavidin coated plate is used) was prepared in phosphate buffered saline (PBS). The antigen solution was added to 96-well plates (50 μL per well) and was incubated at 4° C. overnight. The plates were blocked with 250 μL per well of PBSA (PBS containing 1% BSA) for 2 hr at 37° C., then washed with 200 μL per well of phosphate buffered saline (PBS) three times. Hybridoma sup (50 μL) or 1 mg/mL of purified test or control (positive and negative) antibody (50 μL) were added per well in the 96-well plate and were incubated for 1 hour at room temperature. The plates were washed with 200 μl per well of PBS, three times, then horse radish peroxidase (HRP) conjugated secondary antibody diluted at 1:5,000 in PBSA (50 μl per well) was added and incubated for 1 hour at room temperature. Then, the plates were washed with 200 μl per well of PBS, three times. The tetramethylbenzidine dihydrochloride (TMB) substrate was prepared by mixing with both Solution A and Solution B (1:1) in a 15 mL conical tube, then 50 μL of the substrate was added to the wells. The color was allowed to develop for 1-5 minutes, then 50 μL of the stop solution was added to each well. The absorbance was read using a SpectraMax (Molecular Devices) at 450 nm.

[5] = target: T5, Cyno BCMA DTA-His (cynomolgus); assay: SPR (Biacore T100), antibody captured on Protein A chip, antigen as analyte
T5 construct: SPR analyte, Mw 28,203 Da; also called Cyno DTA His; cynomolgus BCMA DTA-His protein
Protocol: as §1, §2

T3 sequence (A0A2K5UD97 entry or part of it): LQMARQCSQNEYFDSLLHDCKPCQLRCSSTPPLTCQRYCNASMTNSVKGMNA
T4 sequence (A0A2K5UD97 entry or part of it): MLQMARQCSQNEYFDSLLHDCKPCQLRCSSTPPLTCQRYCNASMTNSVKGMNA
T5 sequence (P00588 32-225, tags or fused parts left off): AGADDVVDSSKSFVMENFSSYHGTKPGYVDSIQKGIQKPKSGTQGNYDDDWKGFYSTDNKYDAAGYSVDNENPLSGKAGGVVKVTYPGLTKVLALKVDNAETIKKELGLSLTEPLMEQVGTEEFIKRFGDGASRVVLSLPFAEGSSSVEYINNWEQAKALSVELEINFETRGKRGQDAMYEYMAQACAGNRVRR

Row | Binder | binding result [1] | binding result [2] | binding result [3] | binding result [4] | binding result [5]
1 | B1 | binds | binds | binds | – | –
2 | B2 | – | no binding (tested: antigen up to 80 nM) | – | no binding | no binding (tested: antigen up to 80 nM)
3 | B3 | binds | binds | binds | – | –
4 | B4 | binds | binds | binds | – | –
5 | B5 | binds | binds | binds | – | –
6 | B6 | binds | binds | binds | – | –
7 | B7 | binds | – | – | – | –
